Experimental data taken from patent US20250145710A1 (published 2025).
Numbering of substitutions follows the chain as printed. Values belong to the binder of their own block, whether it stands above or below them.

Key:
human CD3 = human CD3 (UniProt P07766 23-207; P04234 22-171; P09693 23-182); test: flow cytometry cell binding
human CLDN6 = target: T1, human CLDN6 (human, UniProt P56747 1-220); test: flow cytometry cell binding
T1 chain: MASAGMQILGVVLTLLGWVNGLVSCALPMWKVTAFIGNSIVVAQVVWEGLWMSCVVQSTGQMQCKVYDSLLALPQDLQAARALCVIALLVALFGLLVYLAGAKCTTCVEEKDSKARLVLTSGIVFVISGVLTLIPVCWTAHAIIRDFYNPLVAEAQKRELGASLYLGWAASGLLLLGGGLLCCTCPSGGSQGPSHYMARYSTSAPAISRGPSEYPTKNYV

human CD3, sequence (P07766 23-207, chain 1 of 3): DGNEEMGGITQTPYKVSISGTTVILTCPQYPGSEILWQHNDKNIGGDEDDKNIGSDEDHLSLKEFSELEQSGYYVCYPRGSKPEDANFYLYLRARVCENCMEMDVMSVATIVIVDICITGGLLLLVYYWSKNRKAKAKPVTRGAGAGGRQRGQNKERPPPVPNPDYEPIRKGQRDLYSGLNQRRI
human CD3, sequence (P04234 22-171, chain 2 of 3): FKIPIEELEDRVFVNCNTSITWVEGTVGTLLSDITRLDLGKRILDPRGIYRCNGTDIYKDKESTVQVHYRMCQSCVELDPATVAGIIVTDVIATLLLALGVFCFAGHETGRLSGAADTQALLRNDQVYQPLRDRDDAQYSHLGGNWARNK
human CD3, sequence (P09693 23-182, chain 3 of 3): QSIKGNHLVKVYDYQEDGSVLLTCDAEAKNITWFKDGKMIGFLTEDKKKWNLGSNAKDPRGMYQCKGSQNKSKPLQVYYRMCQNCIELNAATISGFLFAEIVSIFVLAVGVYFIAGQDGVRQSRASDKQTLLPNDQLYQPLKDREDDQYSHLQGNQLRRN

- EC50 (human CD3): 7.3 nM
- EC50 (human CLDN6): 40.5 nM
B1: IMC-2-7 tandem scFv antibody (bispecific antibody)
scFv: SYELTQPPSVSVSPGQTARITCSAGSGLYGWYQQKPGQAPVLVIYGTNKRPSGIPERFSGSSSGTTVTLTISGVQAEDEADYYCGSADSSTNAGIFGGGTKLTVLGGGGSGGGGSGGGGSEVQLLESGGGLVQPGGSLRLSCAASGFTFSSYAMNWVRQAPGKGLEWVAGISSSGRYTGYADSVKGRFTISRDNSKNTLYLQMNSLRAEDTAVYYCAKSVGSGVSWSGYVATSLDAWGQGTLVTVSSGGGGSEVQLVESGGGLVQPGGSLRLSCAASGFTFSTYAMNWVRQAPGKGLEWVGRIRSKYNNYATYYADSVKGRFTISRDDSKNTLYLQMNSLRAEDTAVYYCVRHGNFGDSYVSWFAYWGQGTLVTVSSGKPGSGKPGSGKPGSGKPGSQAVVTQEPSLTVSPGGTVTLTCGSSTGAVTTSNYANWVQQKPGKSPRGLIGGTNKRAPGVPARFSGSLLGGKAALTISGAQPEDEADYYCALWYSNHWVFGGGTKLTVL

- EC50 (human CD3): 53.6 nM
- EC50 (human CLDN6): 7.2 nM
B2: IMC-21-1 IgG-(scFv)2 antibody (bispecific antibody)
heavy: not shown
light: SYELTQPPSVSVSPGQTARITCSAGSGLYGWYQQKPGQAPVLVIYGTNKRPSGIPERFSGSSSGTTVTLTISGVQAEDEADYYCGSADSSTNAGIFGGGTKLTVLGQPKAAPSVTLFPPSSEELQANKATLVCLISDFYPGAVTVAWKADSSPVKAGVETTTPSKQSNNKYAASSYLSLTPEQWKSHRSYSCQVTHEGSTVEKTVAPTECS

- EC50 (human CD3): 2.62 nM
- EC50 (human CLDN6): 24.1 nM
B3: IMC-16-15 scFv-Fab IgG antibody (bispecific antibody)
heavy: EVQLLESGGGLVQPGGSLRLSCAASGFTFSSYAMNWVRQAPGKGLEWVAGISSSGRYTGYADSVKGRFTISRDNSKNTLYLQMNSLRAEDTAVYYCAKSMGSGVSWSGYVATSIDVWGQGTLVTVSSASTKGPSVFPLAPSSKSTSGGTAALGCLVKDYFPEPVTVSWNSGALTSGVHTFPAVLQSSGLYSLSSVVTVPSSSLGTQTYICNVNHKPSNTKVDKKVEPKSCDKTHTCPPCPAPEAAGGPSVFLFPPKPKDTLMISRTPEVTCVVVDVSHEDPEVKFNWYVDGVEVHNAKTKPREEQYNSTYRVVSVLTVLHQDWLNGKEYKCKVSNKALPAPIEKTISKAKGQPREPQVYTLPPSREEMTKNQVSLWCLVKGFYPSDIAVEWESNGQPENNYKTTPPVLDSDGSFFLYSKLTVDKSRWQQGNVFSCSVMHEALHNHYTQKSLSLSPGK
light: B2 light
scFv: EVQLVESGGGLVQPGGSLRLSCAASGFTFSTYAMNWVRQAPGKGLEWVGRIRSKYNNYATYYADSVKGRFTISRDDSKNTLYLQMNSLRAEDTAVYYCVRHGNFGDSYVSWFAYWGQGTLVTVSSGKPGSGKPGSGKPGSGKPGSQAVVTQEPSLTVSPGGTVTLTCGSSTGAVTTSNYANWVQQKPGKSPRGLIGGTNKRAPGVPARFSGSLLGGKAALTISGAQPEDEADYYCALWYSNHWVFGGGTKLTVLASPKSSDKTHTCPPCPAPEAAGGPSVFLFPPKPKDTLMISRTPEVTCVVVDVSHEDPEVKFNWYVDGVEVHNAKTKPREEQYNSTYRVVSVLTVLHQDWLNGKEYKCKVSNKALPAPIEKTISKAKGQPREPQVYTLPPSREEMTKNQVSLSCAVKGFYPSDIAVEWESNGQPENNYKTTPPVLDSDGSFFLVSKLTVDKSRWQQGNVFSCSVMHEALHNHYTQKSLSLSPGK

- EC50 (human CD3): 3.46 nM
- EC50 (human CLDN6): 13.7 nM
B4: IMC-16-3 scFv-Fab IgG antibody (bispecific antibody)
heavy: B3 heavy with M100V, I114L, V116A
light: B2 light
scFv: B3 scFv
